Reference: article PMC10899635, “Q586B2 is a crucial virulence factor during the early stages of Trypanosoma brucei infection that is conserved amongst trypanosomatids” (Nature Communications, 2024)
Where two headings read alike, the source gives them in different places.

B1: Nb58 (VHH)
VHH: QVQLQESGGGLVQPGGSLRLSCAASGRSISSIYAMGWYRQAPGKQRELVARLTSGGSSNYADSVKGRFTITRDNAQNTVYLQMNSLKPEDTAVYYCNAEPSRWWLDDDYWGQGTQVTVSS
B2: Nb41 (VHH)
VHH: QVQLQESGGGLVQAGGSLRLSCAASGRTFSSYAMGWFRQAPGKEREFIALISWIGGSTAYADSVKGRFTISRDNAKNTLYLQMNSLKPEDTAVYYCATDRIGRHRGPGTQVTVSS
B3: Nb34 (VHH)
VHH: QVQLQESGGGLVQPGGSLRLSCAASGFTFSNSPMNWVRQAPGKGLEWVSAINSGGGSTYYADSVKGRFTISRDNAKNTLYLQMNSLKPEDTAVYYCAKGGRTYYSGSYYSWGMDYWGKGTQVTVSS
B4: Nb32 (VHH)
VHH: QVQLQESGGGLVQPGGSLRLSCAASGFTFSAYAMSWVRQAPGKGLEWVSTIDSGGGSTYYADSVKGRFTISRDNAKKTLYLHMNSLKPEDTAVYYCAKRGYSDYARHVWGQGTQVTVSS
B5: Nb36 (VHH)
VHH: QVQLQESGGGLVQPGGSLRLSCAASGFAFSFYWMNWVRQAPGKGLEWVSAINSGGGSTYYADSVKGRFTISRDNAKNTLYLQMNSLKPEDTAVYYCAKGIVQRGEYYGMDYWGKGTQVTVSS
B6: Nb53 (VHH)
VHH: QVQLQESGGGSVQAGGSLRLSCSASGYTYSSHCTAWFRQAPGKEREALAAINSRSGTTYYADSVKGRFTISQDNTKNTAYLQMNSLKPEDTATYFCAALSFGCTGPLASLGQGTQVTVSS
B7: Nb39 (VHH)
VHH: QVQLQESGGGLVQPGGSLRLSCTASGSIFSGYAMGWYRQAPGKQRELVAGITSGGSTIYAGSVKGRFTISRDNAKNTVYLQMNSLKPEDTAVYYCKNGTYYSARDYWGQGTQVTVSS
notes: nanobody from a llama immunized with recombinant Q586B2; A biotinylated Nb39 served as detecting agent in the sandwich ELISA; also called anti-Q586B2 Nb39; source: E. coli WK6, periplasmic extraction, purified (His-Trap IMAC, Superdex 75); not shown: HA, C-terminal, kept

How the values were obtained:
[1] = molecular target: T1, native Q586B2 (Trypanosoma brucei brucei AnTat1.1E and …, UniProt Q586B2)
[2] = molecular target: T2, recombinant Q586B2 protein (Trypanosoma brucei brucei)
T2 chain: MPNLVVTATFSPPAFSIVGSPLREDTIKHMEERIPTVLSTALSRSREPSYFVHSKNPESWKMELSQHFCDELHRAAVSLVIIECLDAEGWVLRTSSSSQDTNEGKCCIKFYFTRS

[3] = molecular target: T1, native Q586B2; assay: ELISA; sandwich ELISA: Nb39 coated at 5 µg/ml in PBS; culture medium of in vitro cultured parasites or serum of infected mice (day 6 p.i., diluted 1/2), 2 h at 37 °C; detected with biotinylated Nb39 and streptavidin-HRP; conditions: one partner purified
[4] = molecular target: T3, homologous protein in T. cruzi (Trypanosoma cruzi (assayed strain not …, UniProt Q4D6Q6)); assay: flow cytometry on cells; 5 µg HA-tagged Nb on 100 µl of 10^7/ml purified, fixed and permeabilized parasites, on ice 30 min; detected with Alexa Fluor 488 labeled anti-HA IgG; conditions: one partner purified
T3 construct: protein of T. cruzi homologous to Q586B2, detected by Nb39; also called Q4D6Q6; source: endogenous, T. cruzi parasites, fixed and permeabilized

Binder | binding result [1] | binding result [2] | binding result [3] | binding result [4]
B1 | binds | binds | – | –
B2 | binds | binds | – | –
B3 | binds | binds | – | –
B4 | binds | binds | – | –
B5 | binds | binds | – | –
B6 | binds | binds | – | –
B7 | – | – | binds | binds
